Laboratory results taken from US20120108797A1 (AstraZeneca / MedImmune, published 2012).

Key:
[1] = biological target: T1, human urokinase-type plasminogen activator receptor (uPAR), cell-bound (human, UniProt Q03405 23-305); test: FACS, B300.19/hu-uPAR cells
T1 construct: whole, on cells; Full length cDNA expressed on B300.19 and L929 transfectants; endogenous on U937 (and PC-3 used as positive control cells); also called hu-uPAR
Method: Binding of the antibodies to cell-bound uPAR was tested with the murine pre-B cell line B300.19 (ATCC) transfected to express human uPAR, and B300.19 parental cells as a control, using Fluorometric Microvolume Assay Technology (FMAT). 5,000 cells/well were employed for the assay. […] The bound antibodies were detected using goat anti-human IgG Cy5 conjugate at 400 ng/ml (goat anti-mouse IgG Cy5 conjugate for mouse antibody control). […] For each dye stained, the ratio of the GeoMean values between positive and negative cells were tabulated.

[2] = biological target: T2, cynomolgus monkey uPAR, cell-bound (cynomolgus monkey, UniProt Q9GK78 23-305); test: FACS on 293T cells expressing cynomolgus uPAR, GeoMean of the peak shift
T2 construct: whole, on cells; also called cyno-uPAR; uPAR on CHOK1 or 293T transfectants
T2 sequence (Q9GK78 23-305): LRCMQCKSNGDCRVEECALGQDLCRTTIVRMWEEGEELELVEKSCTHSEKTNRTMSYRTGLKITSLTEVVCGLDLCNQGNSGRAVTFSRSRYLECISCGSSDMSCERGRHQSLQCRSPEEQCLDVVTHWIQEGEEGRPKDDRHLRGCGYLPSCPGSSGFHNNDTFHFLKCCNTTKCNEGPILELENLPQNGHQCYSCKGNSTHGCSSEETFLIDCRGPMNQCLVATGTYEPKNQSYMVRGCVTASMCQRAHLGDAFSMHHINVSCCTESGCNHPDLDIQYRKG

T1 sequence (Q03405 23-305): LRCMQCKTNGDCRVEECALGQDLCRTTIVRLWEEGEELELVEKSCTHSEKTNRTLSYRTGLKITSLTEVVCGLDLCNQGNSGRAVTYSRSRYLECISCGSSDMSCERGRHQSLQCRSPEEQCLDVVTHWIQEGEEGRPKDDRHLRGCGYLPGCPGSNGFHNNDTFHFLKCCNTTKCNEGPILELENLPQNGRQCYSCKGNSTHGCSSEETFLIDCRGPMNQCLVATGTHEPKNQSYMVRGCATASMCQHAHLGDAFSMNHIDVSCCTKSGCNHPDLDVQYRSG

gCy5 Geo Mean Pos Cells [1]	binding result [2]	Binder
282	–	4.13.2 (antibody, V domains shown, Variable domains only; gamma 4 by chain name, kappa; also called 4.13.1; 4.13.1g4) VH: EVQLLESGGGLVQPGGSLRLSCAASGFTFSSYAMSWVRQAPGKGLEWVLGISGSGGSTYYADSVKGRFTISRDNSKNTLYLQMNSLRAEDTAVYYCAKDGYGDYVGWYFDLWGRGTLVTVSS VL: not shown
–	binds	3.8.3 (antibody, V domains shown, Variable domains only; gamma 2 by chain name, kappa; also called 3.8.3g2; 3.8.3k) VH: EVQLVESGGGLVQPGGSLRLSCAASGFTFSSYWMSWVRQAPGKGLEWVANIKQHGSEKYYVDSVKGRFTISRDNAKNSLYLQMNSLRAEDTAVYYCAREEAYYYDNSGYYWYFDLWARGTLVTVSS VL: DIQMTQSPSSVSASIGDRVTITCRASQGISSWLAWYQQKPGKTPKLLIYAASSLQSGVPSRFSGSGSGTDFTLTISSLQPEDFATYYCQQADSFPWTFGQGTKVEIK
